According to patent US20230058774A1:

Assays:
[1] = target: human Fas, wild type (human) (UniProt P25445); test: cell-based or functional assay
[2] = target: FasDNR (Fas dominant negative receptor, deletion of amino acids 230-314 of human Fas) (human) (UniProt P25445); test: cell-based or functional assay

**Q.** “soluble FasL oligomerized through a leucine zipper motif (FasL-LZ) (from UniProt P48023 103-281) (ligand)” was tested. Which apoptosis (active Caspase3/7 and Annexin V) of primary human CD8+ T cells exposed to 100 ng/ml FasL-LZ [1] did it give?
**A.** 70%

**Q.** And the apoptosis (active Caspase3/7 and Annexin V) of primary human CD8+ T cells exposed to 100 ng/ml FasL-LZ [2]?
**A.** < 20%
